# Test results taken from patent publication US7700101B2, “Reagents and method for modulating Dkk-mediated interactions” (Wyeth, priority 2001, dated 2010).
# Entries after “also recorded” stand apart in the source; their conditions may differ.
# Columns and labels:
# [1] = tested on: HBM-mediated Wnt signaling; assay: Xenopus embryo assay, hDkk-1 modulation of HBM+Wnt5a signaling; format: in vivo; conditions: hDkk-1 250 pg, FIG. 11
# Procedure: mRNA for microinjection into Xenopus embryos is generated by in vitro transcription using the CDNA constructs in the pCS2^+ vector described above as template. RNA is synthesized using the Ambion mMessage mMachine high yield capped RNA transcription kit (Cat. #1340) following the manufacturer's specifications for the Sp6 polymerase reactions. RNA products were brought up to a final volume of 50 μl in sterile, glass-distilled water and purified over Quick Spin-Columns for Radiolabelled RNA Purification G50-Sephadex (Roche, Cat. #1274015) following the manufacturer's specifications. The resulting eluate was finally extracted with phenol:chloroform:isoamyl alcohol and isopropanol precipitated using standard protocols (Sambrook et al., 1989). Final RNA volumes were approximately 50 μl. RNA concentration was determined by absorbance values at 260 nm and 280 nm. RNA integrity was visualized by ethidium bromide staining of denaturing (formaldehyde) agarose gel electrophoresis (Sambrook et al., 1989). Various amounts of RNA (2 pg to 1 ng) are injected into the ventral blastomere of the 4- or 8-cell Xenopus embryo. These protocols are described in Moon et al., Technique-J. of Methods in Cell and Mol. Biol. 1: 76-89 (1989), and Peng, Meth. Cell. Biol. 36: 657-62 (1991). […]
# [2] = target: T1, HBM (Homo sapiens, UniProt O75197, G171V); assay: TCF-luciferase assay in HOB-03-CE6 cells, HBM; format: cell-based; conditions: Wnt1, FIG. 14
# T1 construct: Full length Zmax/LRP5 and HBM ORF cDNA; expressed in transfected cells; host or cells: HOB-03-CE6 osteoblastic cells; U2OS osteosarcoma cells; HEK293
# Procedure: HOB-03-CE6 osteoblastic cells developed by Wyeth Ayerst (Philadelphia, Pa.) were seeded into 24-well plates at 150,000 cells per well in 1 ml of the growth media (D-MEM/F12 phenol red-free) containing 10% (v/v) heat-inactivated FBS, 1×penicillin streptomycin, and 1X Glutamax-1, and incubated overnight at 34° C. The following day, the cells were transfected using Lipofectamine 2000® (as described by the manufacturer, Invitrogen) in OptiMEM (Invitrogen) with 0.35 μg/well of LRP5, HBM, or control plasmid DNA (empty vector pcDNA3.1) and either Wnt1 or Wnt3 a plasmid DNA. […] All wells were transfected with 0.025 μg/well of CMV beta-galactosidase plasmid DNA and 0.35 μg/well 16X TCF(ASyluciferase reporter DNA (developed by Ramesh Bhat, Wyeth-Ayerst (Philadelphia, Pa.)). After 4 hours of incubation, the cells were rinsed and 1 ml of fresh growth media was added to each well. The cells were cultured overnight at 34° C., followed by a wash and a change of media. Cells were cultured for an additional 18-24 hours at 37° C. Cells were then lysed with 50 μl/well of 1X lysis buffer. The extracts were assayed for beta-galactosidase activity (Galacto Reaction Buffer Diluent & Light Emission Accelerator, Tropix) using 5 μl extract+50 μl beta-galactosidase diluent and luciferase activity (Luciferase Assay Reagent, Promega) using 20 μl extract.
# [3] = target: T2, LRP5 (Homo sapiens, UniProt O75197); assay: Cell-based TCF reporter high-throughput assay, LRP5 cDNA; conditions: U2OS cells, Wnt1 or Wnt3a/Wnt1 co-transfected, FIG. 20
# T2 construct: Site-directed mutants of LRP5 were generated in the full-length human LRP5 cDNA; expressed in transfected cells; host or cells: HOB-03-CE6 osteoblastic cells; U2OS osteosarcoma cells; HEK293
# Text: To develop a high throughput assay, the TCF-luciferase assay described in Example 7 was modified utilizing low level expression of endogenous LRP5/6 in U2OS and HEK293 cells. However, HOB-03-CE6 cells and any other cells which show a differential response to Dkk depending on whether LRP5, LRP6 or HBM are expressed. Using U2OS (human osteosarcoma) and HEK293 (ATCC) cells, the TCF-luciferase and tk-Renilla reporter element constructs were co-transfected along with Wnt3a/1 and Dkk. Wnt3a alone, by using endogenous LRP5/6, was able to stimulate TCF reporter gene activation. When Dkk, is co-transfected with Wnt3a/Wnt 1 and reporters (TCF-luci and tk-Renilla), DEkk represses reporter element activity. In addition, the TCF-luci signal is activated by Wnt3a/Wnt1 can be repressed by the addition of Dkk-enriched conditioned media to the cells containing Wnt3a/Wnt1 and reporters.
# The Dkk-mediated repression of the reporter is dependent upon the concentration of transfected Dkk cDNA or on the amount of Dkk-conditioned media added. In addition, the Dkk-mediated reporter suppression can be altered by the co-transfection of LRP5, LRP6, and HBM cDNAs in the U2OS or HEK293 cells. In general, U2OS cells show greater sensitivity to Dkk-mediated reporter suppression than that in HEK-293 cells. […]
# T1 sequence (O75197 32-1615 G171V): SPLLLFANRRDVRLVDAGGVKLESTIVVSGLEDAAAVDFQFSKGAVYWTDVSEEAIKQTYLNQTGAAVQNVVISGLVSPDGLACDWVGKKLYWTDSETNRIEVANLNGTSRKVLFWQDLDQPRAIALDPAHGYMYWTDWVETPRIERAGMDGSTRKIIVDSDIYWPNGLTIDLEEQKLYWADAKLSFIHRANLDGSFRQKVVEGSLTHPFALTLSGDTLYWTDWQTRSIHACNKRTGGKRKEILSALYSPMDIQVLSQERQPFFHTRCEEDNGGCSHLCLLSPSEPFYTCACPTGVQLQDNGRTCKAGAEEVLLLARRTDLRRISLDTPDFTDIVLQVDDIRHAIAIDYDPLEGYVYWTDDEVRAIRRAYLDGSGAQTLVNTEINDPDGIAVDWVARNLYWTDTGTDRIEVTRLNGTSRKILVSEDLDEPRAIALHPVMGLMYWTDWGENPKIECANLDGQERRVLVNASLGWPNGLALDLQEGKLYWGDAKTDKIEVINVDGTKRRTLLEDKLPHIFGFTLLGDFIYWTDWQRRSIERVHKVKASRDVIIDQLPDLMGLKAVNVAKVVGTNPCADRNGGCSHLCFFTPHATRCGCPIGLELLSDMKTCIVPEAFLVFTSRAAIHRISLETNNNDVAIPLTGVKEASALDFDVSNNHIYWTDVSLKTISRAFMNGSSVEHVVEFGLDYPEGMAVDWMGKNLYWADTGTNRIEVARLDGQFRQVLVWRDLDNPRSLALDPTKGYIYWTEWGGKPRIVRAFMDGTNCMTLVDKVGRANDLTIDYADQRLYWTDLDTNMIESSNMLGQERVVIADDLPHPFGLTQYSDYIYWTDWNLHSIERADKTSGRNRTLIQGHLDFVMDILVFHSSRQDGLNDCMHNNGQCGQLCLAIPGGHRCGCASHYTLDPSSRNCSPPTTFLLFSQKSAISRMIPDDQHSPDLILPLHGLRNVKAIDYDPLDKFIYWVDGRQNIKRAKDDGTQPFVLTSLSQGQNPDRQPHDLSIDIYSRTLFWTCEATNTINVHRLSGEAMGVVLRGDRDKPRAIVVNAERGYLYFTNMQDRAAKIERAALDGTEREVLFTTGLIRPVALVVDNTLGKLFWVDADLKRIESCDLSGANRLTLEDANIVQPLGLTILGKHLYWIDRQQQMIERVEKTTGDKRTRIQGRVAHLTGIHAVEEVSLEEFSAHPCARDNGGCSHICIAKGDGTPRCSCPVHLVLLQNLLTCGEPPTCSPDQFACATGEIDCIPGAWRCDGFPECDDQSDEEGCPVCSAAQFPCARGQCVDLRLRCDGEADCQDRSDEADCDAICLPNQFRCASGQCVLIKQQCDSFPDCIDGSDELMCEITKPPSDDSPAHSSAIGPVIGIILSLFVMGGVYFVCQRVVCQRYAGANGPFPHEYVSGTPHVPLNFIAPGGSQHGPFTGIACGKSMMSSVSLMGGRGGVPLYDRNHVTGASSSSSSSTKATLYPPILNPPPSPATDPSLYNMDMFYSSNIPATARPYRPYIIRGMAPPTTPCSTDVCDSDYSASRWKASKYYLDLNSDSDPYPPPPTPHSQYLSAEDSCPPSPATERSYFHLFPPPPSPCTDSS
# T2 sequence (O75197 32-1615): as the sequence (O75197 32-1615 G171V) above, with V140G counted along it
substance,measurement,setting,value
"Dkk-1: Dickkopf-1 protein, antagonist of the Wnt pathway; expressed from human cDNA (RNA or plasmid)",repression of HBM-mediated Wnt signaling,[1],unable to repress
same,HBM/Wnt1 mediated TCF-luciferase activity,[2],no effect; also recorded: had no effect on LRP5 or HBM mediated TCF-luciferase activity
same,Dkk-mediated repression of LRP5 signaling (TCF reporter),[3],represses
same,Dkk-mediated repression of LRP5 signaling (TCF reporter),[3]; listed as Dkk1,moderate
